From paper PMC9596850, “Tonsillar Microbiome‐Derived Lantibiotics Induce Structural Changes of IL‐6 and IL‐21 Receptors and Modulate Host Immunity” (Advanced Science, 2022)
Read-outs that look alike come from different tables or passages of the source.

Experiments:
[1] = molecular target: mouse IL-21 receptor protein with the Fc region of human IgG1 (mouse) (UniProt Q9JHX3); assay: SPR; Biacore 8K; receptor immobilised on CM5 chip by amine coupling, 25 °C, PBS-P running buffer; analytes with 5% DMSO injected serially; steady-state affinity model
[2] = molecular target: mouse IL-21 receptor protein with the Fc region of human IgG1 (mouse) (UniProt Q9JHX3); assay: as above; remark: listed apart in the source

Kd [1]: 12.6 µM
Kd [2]: 29.4 µM
Substance: salivaricin A2 (peptide)
